Data taken from patent publication US10500249B2, “Compositions and methods for preventing or treating diseases, conditions, or processes characterized by aberrant fibroblast proliferation and extracellular matrix deposition” (MOERAE MATRIX, INC., priority 2014, dated 2019).

Experiments:
Test in all cases: Kinase Profiling Assay
Type in all cases: biochemical
Details in all cases: 100 μM
NEK6 (h) = biological target: T1, NEK6 (h) (Homo sapiens, UniProt Q9HC98)
T1 construct: purchased Millipore
How it was run: (§1)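 Duplicate wells; [radiolabeled] ATP phosphate onto cationic substrate; filter capture (negatively charged membrane); scintillation count; % of 100% activity control. Selectivity screen of MK2 peptide inhibitors, 266 human kinases.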

WNK3 (h) = WNK3 (h) (Homo sapiens, UniProt Q9BYP7)
How it was run: as §1

NEK2 (h) = biological target: T2, NEK2 (h) (Homo sapiens, UniProt P51955)
T2 construct: purchased Millipore
T2 sequence (P51955 1-445): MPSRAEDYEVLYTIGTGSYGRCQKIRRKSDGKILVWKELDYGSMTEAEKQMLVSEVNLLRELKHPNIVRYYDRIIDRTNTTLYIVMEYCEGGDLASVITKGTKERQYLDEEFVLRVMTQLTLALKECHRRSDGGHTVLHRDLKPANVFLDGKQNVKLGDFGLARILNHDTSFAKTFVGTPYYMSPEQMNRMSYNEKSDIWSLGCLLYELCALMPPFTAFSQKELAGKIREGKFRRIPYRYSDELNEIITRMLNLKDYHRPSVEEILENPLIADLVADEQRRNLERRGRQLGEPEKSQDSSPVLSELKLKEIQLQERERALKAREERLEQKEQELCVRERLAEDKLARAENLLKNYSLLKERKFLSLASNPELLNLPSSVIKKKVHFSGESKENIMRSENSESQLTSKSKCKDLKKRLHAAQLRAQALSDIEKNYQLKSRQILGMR
How it was run: as §1

Flt1 (h) = Flt1 (h) (Homo sapiens, UniProt P17948)
How it was run: as §1

IKKβ (h) = biological target: T3, IKKβ (h) (Homo sapiens, UniProt O14920)
T3 construct: purchased Millipore
T3 sequence (O14920 1-756): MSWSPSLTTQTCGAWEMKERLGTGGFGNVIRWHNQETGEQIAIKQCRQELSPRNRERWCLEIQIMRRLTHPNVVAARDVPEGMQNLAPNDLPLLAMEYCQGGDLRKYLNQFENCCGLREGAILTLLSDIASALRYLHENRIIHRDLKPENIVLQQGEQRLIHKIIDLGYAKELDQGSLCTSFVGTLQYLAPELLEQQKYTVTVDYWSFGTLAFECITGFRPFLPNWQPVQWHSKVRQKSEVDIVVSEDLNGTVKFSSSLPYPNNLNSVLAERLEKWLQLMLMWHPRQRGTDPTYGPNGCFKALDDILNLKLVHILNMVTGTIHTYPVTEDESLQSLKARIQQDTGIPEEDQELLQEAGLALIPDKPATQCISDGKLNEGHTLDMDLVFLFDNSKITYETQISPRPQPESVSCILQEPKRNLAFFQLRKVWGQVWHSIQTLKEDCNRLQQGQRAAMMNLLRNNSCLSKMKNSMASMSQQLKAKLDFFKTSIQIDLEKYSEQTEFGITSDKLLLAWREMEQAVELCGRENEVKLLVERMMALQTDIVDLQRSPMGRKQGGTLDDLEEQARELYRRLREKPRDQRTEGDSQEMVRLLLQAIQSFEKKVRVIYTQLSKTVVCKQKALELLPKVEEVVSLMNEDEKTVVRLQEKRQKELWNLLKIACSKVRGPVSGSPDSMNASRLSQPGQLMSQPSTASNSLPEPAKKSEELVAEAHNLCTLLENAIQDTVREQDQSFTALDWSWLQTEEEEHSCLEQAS
How it was run: as §1

Src(T341M) (h) = Src(T341M) (h) (Homo sapiens, UniProt P12931, T341M)
How it was run: as §1

JAK2 (h) = biological target: T4, JAK2 (h) (Homo sapiens, UniProt O60674)
T4 construct: purchased Millipore
How it was run: as §1

Fms(Y969C) (h) = Fms(Y969C) (h) (Homo sapiens, UniProt P07333, Y969C)
How it was run: as §1

PAK4 (h) = biological target: T5, PAK4 (h) (Homo sapiens, UniProt O96013)
T5 construct: purchased Millipore
How it was run: as §1

Fer (h) = Fer (h) (Homo sapiens, UniProt P16591)
How it was run: as §1

Bmx (h) = biological target: T6, Bmx (h) (Homo sapiens, UniProt P51813)
T6 sequence (P51813 1-675): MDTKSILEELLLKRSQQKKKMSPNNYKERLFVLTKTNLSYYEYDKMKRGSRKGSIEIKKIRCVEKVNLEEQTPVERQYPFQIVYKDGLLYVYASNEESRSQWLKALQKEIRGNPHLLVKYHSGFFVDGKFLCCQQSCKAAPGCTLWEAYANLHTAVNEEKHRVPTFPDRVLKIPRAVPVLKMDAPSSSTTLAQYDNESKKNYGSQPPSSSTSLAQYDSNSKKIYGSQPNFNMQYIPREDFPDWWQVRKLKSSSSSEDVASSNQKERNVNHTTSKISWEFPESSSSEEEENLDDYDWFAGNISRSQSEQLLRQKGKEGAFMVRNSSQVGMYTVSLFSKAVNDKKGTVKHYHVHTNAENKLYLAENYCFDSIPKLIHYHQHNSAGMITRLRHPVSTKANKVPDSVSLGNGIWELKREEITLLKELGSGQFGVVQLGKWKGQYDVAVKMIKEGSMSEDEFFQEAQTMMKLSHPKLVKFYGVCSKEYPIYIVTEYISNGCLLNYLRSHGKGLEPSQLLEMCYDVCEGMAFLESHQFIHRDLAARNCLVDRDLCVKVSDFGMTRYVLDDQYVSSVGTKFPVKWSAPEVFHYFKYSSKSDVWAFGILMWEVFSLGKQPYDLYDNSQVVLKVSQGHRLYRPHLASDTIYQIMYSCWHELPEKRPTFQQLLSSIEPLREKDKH
How it was run: as §1

Chain of Fer (h) (P16591 whole entry): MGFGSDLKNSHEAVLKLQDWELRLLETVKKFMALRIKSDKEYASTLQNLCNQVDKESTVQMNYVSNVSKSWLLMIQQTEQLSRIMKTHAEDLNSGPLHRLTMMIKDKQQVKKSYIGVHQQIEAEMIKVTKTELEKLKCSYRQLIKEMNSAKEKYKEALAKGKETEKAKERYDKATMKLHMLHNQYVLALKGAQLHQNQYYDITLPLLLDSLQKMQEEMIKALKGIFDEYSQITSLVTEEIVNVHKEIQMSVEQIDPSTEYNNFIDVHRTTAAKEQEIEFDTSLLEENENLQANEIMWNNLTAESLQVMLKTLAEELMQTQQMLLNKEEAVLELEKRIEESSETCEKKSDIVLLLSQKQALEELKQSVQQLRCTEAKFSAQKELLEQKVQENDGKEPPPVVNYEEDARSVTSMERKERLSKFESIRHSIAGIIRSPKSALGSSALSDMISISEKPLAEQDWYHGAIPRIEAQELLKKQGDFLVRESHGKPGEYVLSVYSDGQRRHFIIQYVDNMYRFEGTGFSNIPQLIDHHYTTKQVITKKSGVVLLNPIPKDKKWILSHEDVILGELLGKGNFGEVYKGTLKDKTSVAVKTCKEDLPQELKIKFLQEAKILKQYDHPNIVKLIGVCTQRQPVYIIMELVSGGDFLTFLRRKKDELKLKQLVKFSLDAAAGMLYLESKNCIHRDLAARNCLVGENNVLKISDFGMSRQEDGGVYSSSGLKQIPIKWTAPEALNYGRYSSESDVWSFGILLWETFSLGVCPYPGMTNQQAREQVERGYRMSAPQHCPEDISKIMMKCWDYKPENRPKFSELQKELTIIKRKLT
T4 sequence (O60674 whole entry): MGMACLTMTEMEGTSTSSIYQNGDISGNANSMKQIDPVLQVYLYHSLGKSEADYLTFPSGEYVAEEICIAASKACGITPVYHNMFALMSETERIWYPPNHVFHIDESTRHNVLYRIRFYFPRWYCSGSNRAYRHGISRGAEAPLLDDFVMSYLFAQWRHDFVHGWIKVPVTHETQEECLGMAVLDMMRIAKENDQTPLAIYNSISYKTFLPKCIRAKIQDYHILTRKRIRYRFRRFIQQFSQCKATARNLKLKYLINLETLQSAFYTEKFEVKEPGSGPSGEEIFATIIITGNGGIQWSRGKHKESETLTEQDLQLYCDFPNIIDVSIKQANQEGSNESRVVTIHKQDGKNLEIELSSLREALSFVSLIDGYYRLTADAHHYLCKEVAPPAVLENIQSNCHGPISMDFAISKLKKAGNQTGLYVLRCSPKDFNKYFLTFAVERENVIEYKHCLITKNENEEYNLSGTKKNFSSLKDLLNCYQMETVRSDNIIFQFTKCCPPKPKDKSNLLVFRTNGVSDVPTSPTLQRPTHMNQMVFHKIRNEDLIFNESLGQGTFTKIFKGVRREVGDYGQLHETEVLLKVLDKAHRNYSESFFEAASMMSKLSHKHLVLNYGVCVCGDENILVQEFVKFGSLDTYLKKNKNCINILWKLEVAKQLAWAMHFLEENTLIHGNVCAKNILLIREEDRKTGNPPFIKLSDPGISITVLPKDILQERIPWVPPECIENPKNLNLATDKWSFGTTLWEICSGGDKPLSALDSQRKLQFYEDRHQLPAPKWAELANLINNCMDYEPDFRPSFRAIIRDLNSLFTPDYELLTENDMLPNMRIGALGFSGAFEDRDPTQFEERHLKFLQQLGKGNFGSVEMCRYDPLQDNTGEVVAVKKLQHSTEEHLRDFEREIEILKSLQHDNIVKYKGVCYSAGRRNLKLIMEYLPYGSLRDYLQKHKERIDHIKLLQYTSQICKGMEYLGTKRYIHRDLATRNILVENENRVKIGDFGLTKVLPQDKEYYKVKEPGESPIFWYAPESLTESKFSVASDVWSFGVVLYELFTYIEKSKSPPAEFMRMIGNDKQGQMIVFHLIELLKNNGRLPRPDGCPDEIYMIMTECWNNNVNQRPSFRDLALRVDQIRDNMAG
T1 sequence (Q9HC98 whole entry): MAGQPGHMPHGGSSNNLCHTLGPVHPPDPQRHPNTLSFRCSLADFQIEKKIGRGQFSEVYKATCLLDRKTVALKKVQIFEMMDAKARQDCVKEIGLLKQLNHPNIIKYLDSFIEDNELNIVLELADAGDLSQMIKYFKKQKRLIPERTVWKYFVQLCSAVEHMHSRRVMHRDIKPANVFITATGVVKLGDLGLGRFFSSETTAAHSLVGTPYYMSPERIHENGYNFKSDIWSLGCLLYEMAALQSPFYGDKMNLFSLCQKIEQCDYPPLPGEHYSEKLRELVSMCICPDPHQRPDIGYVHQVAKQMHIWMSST
T5 sequence (O96013 whole entry): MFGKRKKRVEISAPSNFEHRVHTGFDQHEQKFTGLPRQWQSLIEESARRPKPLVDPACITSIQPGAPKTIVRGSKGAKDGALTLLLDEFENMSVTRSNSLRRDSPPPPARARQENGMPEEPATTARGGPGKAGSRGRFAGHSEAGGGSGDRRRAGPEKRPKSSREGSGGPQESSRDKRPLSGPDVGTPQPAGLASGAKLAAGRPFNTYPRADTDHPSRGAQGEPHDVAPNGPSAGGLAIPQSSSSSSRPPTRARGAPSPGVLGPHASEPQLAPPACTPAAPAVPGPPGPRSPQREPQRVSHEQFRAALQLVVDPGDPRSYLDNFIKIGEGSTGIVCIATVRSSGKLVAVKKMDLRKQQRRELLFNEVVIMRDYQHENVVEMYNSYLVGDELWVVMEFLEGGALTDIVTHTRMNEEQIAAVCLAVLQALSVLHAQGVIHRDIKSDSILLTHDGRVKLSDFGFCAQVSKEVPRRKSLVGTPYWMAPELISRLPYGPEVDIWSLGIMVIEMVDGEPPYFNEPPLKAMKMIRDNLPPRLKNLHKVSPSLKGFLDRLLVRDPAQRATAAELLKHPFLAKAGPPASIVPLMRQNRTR
Chain of Flt1 (h) (P17948 27-1338): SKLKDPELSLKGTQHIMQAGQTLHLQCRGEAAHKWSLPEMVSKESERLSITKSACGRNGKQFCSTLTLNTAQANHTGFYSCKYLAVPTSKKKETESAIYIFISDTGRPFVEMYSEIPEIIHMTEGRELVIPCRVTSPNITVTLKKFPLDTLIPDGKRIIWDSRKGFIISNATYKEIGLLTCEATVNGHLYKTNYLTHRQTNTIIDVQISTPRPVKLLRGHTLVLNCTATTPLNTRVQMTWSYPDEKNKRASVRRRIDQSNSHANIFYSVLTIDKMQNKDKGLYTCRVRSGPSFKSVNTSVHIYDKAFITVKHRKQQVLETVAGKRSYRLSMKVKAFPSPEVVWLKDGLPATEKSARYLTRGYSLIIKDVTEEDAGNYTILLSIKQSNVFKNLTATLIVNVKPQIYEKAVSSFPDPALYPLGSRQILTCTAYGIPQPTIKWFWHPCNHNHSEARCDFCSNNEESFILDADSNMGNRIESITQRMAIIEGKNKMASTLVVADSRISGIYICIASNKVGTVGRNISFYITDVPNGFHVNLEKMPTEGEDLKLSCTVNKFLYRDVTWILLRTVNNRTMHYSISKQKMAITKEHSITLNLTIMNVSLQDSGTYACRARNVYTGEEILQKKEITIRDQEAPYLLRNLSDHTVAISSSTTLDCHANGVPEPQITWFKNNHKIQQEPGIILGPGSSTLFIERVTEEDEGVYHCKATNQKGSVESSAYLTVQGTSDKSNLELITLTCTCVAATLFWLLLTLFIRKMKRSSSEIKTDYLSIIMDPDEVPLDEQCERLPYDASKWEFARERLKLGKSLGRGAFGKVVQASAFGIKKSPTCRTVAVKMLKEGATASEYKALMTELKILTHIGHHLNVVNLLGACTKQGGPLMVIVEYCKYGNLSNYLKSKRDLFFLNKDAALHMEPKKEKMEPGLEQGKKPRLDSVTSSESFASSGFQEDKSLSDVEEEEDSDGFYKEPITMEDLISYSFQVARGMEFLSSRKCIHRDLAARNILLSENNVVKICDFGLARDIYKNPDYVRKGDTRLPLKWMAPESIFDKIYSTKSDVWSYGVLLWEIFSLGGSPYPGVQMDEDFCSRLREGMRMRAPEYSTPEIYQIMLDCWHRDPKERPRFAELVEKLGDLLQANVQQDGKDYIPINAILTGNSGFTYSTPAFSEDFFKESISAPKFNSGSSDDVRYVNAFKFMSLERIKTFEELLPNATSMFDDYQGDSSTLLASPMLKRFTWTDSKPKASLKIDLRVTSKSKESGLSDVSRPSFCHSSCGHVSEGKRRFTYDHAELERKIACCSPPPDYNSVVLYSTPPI

Sequence | % activity (NEK6 (h)) [%] | % activity (WNK3 (h)) [%] | % activity (NEK2 (h)) [%] | % activity (Flt1 (h)) [%] | % activity (IKKβ (h)) [%] | % activity (Src(T341M) (h)) [%] | % activity (JAK2 (h)) [%] | % activity (Fms(Y969C) (h)) [%] | % activity (PAK4 (h)) [%] | % activity (Fer (h)) [%] | % activity (Bmx (h)) [%]
FAKLAARLYRKALARQLGVAA [MMI-0300] | 82 | 77 | 78 | 69 | 84 | 70 | 133 | 72 | 94 | 130 | –
HRRIKAWLKKIKALARQLGVAA (Mammalian) [MMI-0500] | 49 | 9 | 0 | 27 | 71 | 59 | 49 | – | 86 | 196 | 45
KAFAKLAARLYRKALARQLGVAA [MMI-0400] | 85 | 74 | 61 | 48 | 84 | 76 | – | 91 | 89 | 108 | 26
YARAAARQARAKALNRQLGVA (Mammalian) [MMI-0200] | 98 | 97 | 97 | 96 | – | 56 | 131 | 88 | 98 | 101 | 76
